Earlier results as cited in publication PMC11750407.
pKd: −log10 of the molar value.

Target: coagulation factor Xa (Homo sapiens) (UniProt P00742)
Sequence of UniProt P00742 (P00742 41-179, chain 1 of 2): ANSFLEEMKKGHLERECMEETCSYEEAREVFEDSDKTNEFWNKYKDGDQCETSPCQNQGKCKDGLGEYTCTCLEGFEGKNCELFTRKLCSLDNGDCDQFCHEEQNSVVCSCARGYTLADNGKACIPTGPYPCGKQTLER
Sequence of UniProt P00742 (P00742 235-488, chain 2 of 2): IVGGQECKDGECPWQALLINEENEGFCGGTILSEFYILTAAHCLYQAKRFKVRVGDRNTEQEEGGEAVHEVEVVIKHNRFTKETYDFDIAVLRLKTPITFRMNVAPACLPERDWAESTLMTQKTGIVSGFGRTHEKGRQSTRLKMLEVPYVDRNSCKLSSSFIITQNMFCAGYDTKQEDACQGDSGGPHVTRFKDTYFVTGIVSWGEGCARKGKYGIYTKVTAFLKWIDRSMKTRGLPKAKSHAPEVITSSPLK

In the case of “coagulation factor Va (from UniProt P12259)”, the pKd is given as 6.00.
